Data from US20240252614A1 (Pfizer, published 2024).

Key:
[1] = target: T1, PIV1028 (PIV1); assay: BLI, 50C stress;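 note: binding of thermally stressed PIV1 F mutant supernatant to mAb on AHC biosensors for 5 min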
T1 construct: A480L
Procedure: (§1) All measurements were conducted at 30° C. temperature in 96-well black plates (Corning, Corning, NY) with a final volume of 240 μL per well at a constant agitation rate of 1000 RPM.
(§2) Conformation integrity of PIV1 F protein mutants were evaluated by a thermal stress experiment. Crude cell culture supernatants were normalized based on the results of the titer quantitation and then incubated for 1 hour at room temperature and two higher temperatures. For the initial testing of PIV1 mutants, the two temperatures were 50° C. and 53° C. […] Anti-Human IgG Fc Capture (AHC) biosensors were first equilibrated in PB for before being dipped into more PB to establish the initial baseline. […] The mAb-bound biosensors were then dipped into the thermal stresses cell culture supernatants for 5 minutes.

[2] = target: T2, PIV1039 (PIV1); assay: BLI, 50C stress;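 note: binding of thermally stressed PIV1 F mutant supernatant to mAb on AHC biosensors for 5 min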
T2 construct: A128P
Procedure: as §1, §2

[3] = target: T3, PIV1036 (PIV1); assay: BLI, 50C stress;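 note: binding of thermally stressed PIV1 F mutant supernatant to mAb on AHC biosensors for 5 min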
T3 construct: G134A
Procedure: as §1, §2

[4] = target: T4, PIV1026 (PIV1); assay: BLI, 50C stress;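 note: binding of thermally stressed PIV1 F mutant supernatant to mAb on AHC biosensors for 5 min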
T4 construct: S473V
Procedure: as §1, §2

[5] = target: T5, PIV1024 (PIV1); assay: BLI, 50C stress
T5 construct: A466V
Procedure: as §1, §2

[6] = target: T6, PIV1014 (PIV1); assay: BLI, 50C stress
T6 construct: Q92C-G134C
Procedure: as §1, §2

[7] = target: T7, PIV1033 (PIV1); assay: BLI, 50C stress
T7 construct: T198A
Procedure: as §1, §2

[8] = target: T8, PIV1030 (PIV1); assay: BLI, 50C stress
T8 construct: A466L, S473A
Procedure: as §1, §2

[9] = target: T9, PIV1023 (PIV1); assay: BLI, 50C stress
T9 construct: A466L
Procedure: as §1, §2

[10] = target: T10, PIV1031 (PIV1); assay: BLI, 50C stress
T10 construct: A466L, S473L
Procedure: as §1, §2

[11] = target: T11, PIV1027 (PIV1); assay: BLI, 50C stress
T11 construct: S473L
Procedure: as §1, §2

[12] = target: T12, PIV1045 (PIV1); assay: BLI, 53C stress
T12 construct: Q92L, G134A
Procedure: as §1, §2

[13] = target: T13, PIV1042 (PIV1); assay: BLI, 53C stress
T13 construct: Q92A
Procedure: as §1, §2

[14] = target: T14, PIV1044 (PIV1); assay: BLI, 53C stress
T14 construct: Q92L
Procedure: as §1, §2

[15] = target: T15, hMPV045 (hMPV A, UniProt Q6WB98 19-102); assay: BLI, 50C stress
T15 construct: I137C-A159C
Procedure: (§3) The OCTET HTX (Sartorius, Gottingen, Germany) instrument was used to evaluate the expression and conformational integrity for each mutant. All measurements were conducted at 30° C. temperature in 96-well black plates (Corning, Corning, NY) with a final volume of 240 μL per well at a constant agitation rate of 1000 RPM.
(§4) Conformation integrity of hMPV A F protein mutants were evaluated by thermal stress experiments. Crude cell culture supernatants were normalized based on the results of the titer quantitation and then incubated for 1 hour at room temperature and two higher temperatures. […] Anti-Human IgG Fc Capture (AHC) biosensors were first equilibrated in PB before being dipped into more PB to establish the initial baseline. […] The mAb-bound biosensors were then dipped into the thermal stressed cell culture supernatants for 5 minutes. The kinetics analysis was done by OCTET data analysis software (version 12.0, Sartorius) based on curve fitting of the entire associate step.

[16] = target: T16, hMPV053 (hMPV A, UniProt Q6WB98 19-102); assay: BLI, 50C stress
T16 construct: L110P
Procedure: as §3, §4

[17] = target: T17, hMPV061 (hMPV A, UniProt Q6WB98 19-102); assay: BLI, 50C stress
T17 construct: G106A
Procedure: as §3, §4

[18] = target: T18, hMPV075 (hMPV A, UniProt Q6WB98 19-102); assay: BLI, 50C stress
T18 construct: L473F
Procedure: as §3, §4

[19] = target: T19, hMPV071 (hMPV A, UniProt Q6WB98 19-102); assay: BLI, 50C stress
T19 construct: T365I
Procedure: as §3, §4

[20] = target: hMPV A F WT Control (hMPV A, UniProt Q6WB98 19-102); assay: BLI, 50C stress
Procedure: as §3, §4

[21] = target: T20, hMPV062 (hMPV A, UniProt Q6WB98 19-102); assay: BLI, 50C stress
T20 construct: G121A
Procedure: as §3, §4

[22] = target: T21, hMPV049 (hMPV A, UniProt Q6WB98 19-102); assay: BLI, 50C stress
T21 construct: E146C-T160C
Procedure: as §3, §4

[23] = target: T22, hMPV068 (hMPV A, UniProt Q6WB98 19-102); assay: BLI, 50C stress
T22 construct: A159V
Procedure: as §3, §4

[24] = target: T23, hMPV054 (hMPV A, UniProt Q6WB98 19-102); assay: BLI, 50C stress
T23 construct: S132P
Procedure: as §3, §4

[25] = target: T24, hMPV043 (hMPV A, UniProt Q6WB98 19-102); assay: BLI, 50C stress
T24 construct: G366C-D454C
Procedure: as §3, §4

[26] = target: T25, hMPV044 (hMPV A, UniProt Q6WB98 19-102); assay: BLI, 50C stress
T25 construct: T411C-Q434C
Procedure: as §3, §4

[27] = target: T26, hMPV058 (hMPV A, UniProt Q6WB98 19-102); assay: BLI, 50C stress
T26 construct: L187P
Procedure: as §3, §4

[28] = target: T27, hMPV046 (hMPV A, UniProt Q6WB98 19-102); assay: BLI, 50C stress
T27 construct: A140C-S149C
Procedure: as §3, §4

[29] = target: T28, hMPV055 (hMPV A, UniProt Q6WB98 19-102); assay: BLI, 50C stress
T28 construct: N145P
Procedure: as §3, §4

[30] = target: T29, hMPV047 (hMPV A, UniProt Q6WB98 19-102); assay: BLI, 50C stress
T29 construct: L141C-A159C
Procedure: as §3, §4

[31] = target: T30, hMPV063 (hMPV A, UniProt Q6WB98 19-102); assay: BLI, 50C stress
T30 construct: G239A
Procedure: as §3, §4

[32] = target: T31, hMPV077 (hMPV A, UniProt Q6WB98 19-102); assay: BLI, 50C stress
T31 construct: Q476C, S477C
Procedure: as §3, §4

[33] = target: T32, hMPV059 (hMPV A, UniProt Q6WB98 19-102); assay: BLI, 50C stress
T32 construct: V449P
Procedure: as §3, §4

[34] = target: T33, hMPV067 (hMPV A, UniProt Q6WB98 19-102); assay: BLI, 50C stress
T33 construct: S149T
Procedure: as §3, §4

[35] = target: T34, hMPV048 (hMPV A, UniProt Q6WB98 19-102); assay: BLI, 50C stress
T34 construct: L141C-A161C
Procedure: as §3, §4

[36] = target: T35, hMPV052 (hMPV A, UniProt Q6WB98 19-102); assay: BLI, 50C stress
T35 construct: L66P
Procedure: as §3, §4

[37] = target: T36, hMPV060 (hMPV A, UniProt Q6WB98 19-102); assay: BLI, 50C stress
T36 construct: A459P
Procedure: as §3, §4

[38] = target: T37, hMPV069 (hMPV A, UniProt Q6WB98 19-102); assay: BLI, 50C stress
T37 construct: S291I
Procedure: as §3, §4

[39] = target: T38, hMPV066 (hMPV A, UniProt Q6WB98 19-102); assay: BLI, 50C stress
T38 construct: T49I
Procedure: as §3, §4

[40] = target: T39, hMPV050 (hMPV A, UniProt Q6WB98 19-102); assay: BLI, 50C stress
T39 construct: V148C-L158C
Procedure: as §3, §4

B1: PIV1-8 mAb (antibody, V domains shown)
VH: QVQLVQSGAEVKKPGSSVKVSCEASGGTFSNYVISWVRQAPGQGLEWMGGIIPVFATAKYAQKFQGRVTIIADQSTNTAYLELSSLRSDDTAVYFCASVDSGGTWWDAFAIWGQGTMVTVSS
VL: QAVVTQPRSVSGSPGQAVTISCTGTSSDVGGYNYVSWYQHHPGKAPKLIIYDVTKRPSGVPDRFSGSKSGNTASLTISGLQTEYEADYYCCSYAGSYTLVFGGGTKLTVLG
notes: human IgG1; also called hPIV1-8 mAb; hPIV1-8
B1 was tested, and the “Response Shift” value [1] was -0.018 nm, the “Response Shift” value [2] was -0.039 nm and the “Response Shift” value [3] was 0.007 nm. For the same binder, the “Response Shift” value [4] was -0.022 nm, the “Response Shift” value [5] was 0.022 nm and the “Response Shift” value [6] was 0.011 nm. For the same binder, the “Response Shift” value [7] was -0.027 nm, the “Response Shift” value [8] was -0.031 nm and the “Response Shift” value [9] was 0.018 nm. For the same binder, the “Response Shift” value [10] was 0.72 nm, the “Response Shift” value [11] was -0.022 nm and the “Response Shift” value [12] was -0.054 nm. For the same binder, the “Response Shift” value [13] was -0.052 nm and the “Response Shift” value [14] was -0.007 nm.

B2: hMPV-2 mAb (antibody, V domains shown)
VH: QVQLQQSGAEVKKPGASVKVSCKASGYTFTSYGISWVRQAPGQGLEWMGWISGYNGNTNYAQTFQGTFTMTTDTSTSTAYMELRRLRSGDTAVYYCARDRYYASGSYNGMDVWGQGTTVTVSS
VL: QSALTQPPSASGAPGQRVTVSCSGSSSNVGSSSVYWYQQLPGTAPKLLIYRNNQRPSGVPDRFSGSKSGTSASLAISGLRSEDEADYYCAAWDDSLSGWVFGGGTKLTVLG
notes: human IgG1
For B2, the “Response Shift” value [15] was 0.124 nm, the “Response Shift” value [16] was 0.566 nm and the “Response Shift” value [17] was 0.561 nm. For the same binder, the “Response Shift” value [18] was 0.653 nm, the “Response Shift” value [19] was 0.694 nm and the “Response Shift” value [20] was 0.284 nm. For the same binder, the “Response Shift” value [21] was 0.46 nm, the “Response Shift” value [22] was 0.549 nm and the “Response Shift” value [23] was 0.441 nm. For the same binder, the “Response Shift” value [24] was 0.467 nm, the “Response Shift” value [25] was 0.567 nm and the “Response Shift” value [26] was 0.737 nm. For the same binder, the “Response Shift” value [27] was 0.494 nm, the “Response Shift” value [28] was 0.472 nm and the “Response Shift” value [29] was 0.194 nm. The “Response Shift” value [30] was -0.039 nm, the “Response Shift” value [31] was 0.685 nm and the “Response Shift” value [32] was 0.635 nm. The “Response Shift” value [33] was 0.455 nm, the “Response Shift” value [34] was 0.654 nm and the “Response Shift” value [35] was 0.439 nm. For the same binder, the “Response Shift” value [36] was 0.634 nm, the “Response Shift” value [37] was 0.707 nm and the “Response Shift” value [38] was 0.465 nm. For the same binder, the “Response Shift” value [39] was 0.738 nm and the “Response Shift” value [40] was 0.142 nm.
